Biological target: T1, 人BCMA-His抗原 (ACRO, Cat#BCA-H522y) (human, UniProt Q02223 1-54)
T1 construct: Bought recombinant protein; also called human BCMA-His; 人BCMA蛋白; not shown: His tag
T1 sequence (looked up): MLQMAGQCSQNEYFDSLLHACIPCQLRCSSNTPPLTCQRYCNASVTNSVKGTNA
Assay: indirect ELISA, plate coated with human BCMA-His at 2 μg/ml, detection with HRP goat anti-human Fcγ

B1: BCMA Benchmark1 (antibody sequence of GSK2857916) (antibody, human IgG1, kappa, V domains shown)
VH: QVQLVQSGAEVKKPGSSVKVSCKASGGTFSNYWMHWVRQAPGQGLEWMGATYRGHSDTYYNQKFKGRVTITADKSTSTAYMELSSLRSEDTAVYYCARGAIYDGYDVLDNWGQGTLVTVSS
VL: DIQMTQSPSSLSASVGDRVTITCSASQDISNYLNWYQQKPGKAPKLLIYYTSNLHSGVPSRFSGSGSGTDFTLTISSLQPEDFATYYCQQYRKLPWTFGQGTKLEIKR
notes: also called BCMA-BM1
binding result: binds

B2: BCMA-VHH-2B11纳米抗体 (抗人BCMA纳米抗体, 含有Fc tag) (Fc fusion)
chain: QVQLVESGGGLVQAGGSLRLSCAASGGTFNNDNVGWFRQAPGKEREFVAVISWRGDGTDYADSVKGRFTISRDYAKKMVYLQMNSLQPKDTAVYYCAVGDGSRWRGAYAYWGQGTRVTVSS
notes: Expressed in Expi293F cells and purified on Protein A/G. It was tested as VHH with an Fc tag, about 35 kDa on SDS-PAGE; also called anti-human BCMA nanobody; not shown: Fc tag
binding result: binds
